Source: patent US8470523B2, “Method for detecting intracellular interaction between biomolecules” (CIS BIO International, priority 2005, dated 2013)

System: CHO-M1 cells
Assay: Entry of a fluorophore into cells in culture, fluorescence reader
Details: 2.5 μM or 5 μM in KREBS buffer, 1 hour, FIG. 13
Experimental: CHO cells are cultivated at 37° C., under a controlled atmosphere containing 5% of CO2, in F-12 HAM medium (Invitrogen)+10% of fetal calf serum (FCS) previously inactivated for 20 min at 60° C.
On the day before the experiment, CHO-M1 cells are inoculated into a 96-well plate at a density of 10,000 cells per well.
On the day of the experiment, the culture medium is aspirated and replaced with the test compounds at a concentration of 2.5 μM or 5 μM in KREBS buffer (Sigma). After 1 hour of incubation, the wells are washed with a KREBS buffer+0.05% Tween 20. The cells are then lyzed in a PBS buffer+0.1% Triton X100. The fluorescence is measured on an Analyst AD reader (LJL, Molecular Devices) with the filters and the dichroic appropriate for the spectral specificities of the compound to be detected.

For `N=C(N)NCCCC(NC(=O)CCCCCN)C(=O)NCCCCCC(=O)NC(CCCNC(=N)N)C(=O)NCCCCCC(=O)NC(CCCNC(=N)N)C(=O)NCCCCCC(=O)NC(CCCNC(=N)N)C(=O)NCCCCCC(=O)NC(CCCNC(=N)N)C(=O)NCCCCCC(=O)NC(CCCNC(=N)N)C(=O)NCCCCCC(=O)NC(CCCNC(=N)N)C(=O)NC(CSCC(=O)Nc1ccc2c(c1)C1(OC2=O)c2ccc(O)cc2Oc2cc(O)ccc21)C(N)=O` (stereo not shown) [R7fluorescein], the “entry into the cell (fluorescence intensity of lysed cells)” value was “enter the cell”.
